Measurements from patent US7943146B2, “Immunizing compositions comprising HIV-1 proviral constructs with an inactive p6 gag TSG101 UEV binding domain capable of producing budding-defective viral particles that remain tethered to the cell surface” (priority 2001, dated 2011).
Residues, ends and D or L forms follow the SMILES beside them. No end group written: not given here.

Assays:
HIV = assay: microbe, parasite or virus in culture; assay type: cell-based, HIV-1; conditions: human PBMCs
Description: Fresh human blood was obtained commercially from Interstate Blood Bank, Inc. (Memphis, Tenn.). The lymphotropic clinical isolate HIV-1ROJO was obtained from a pediatric patient attending the AIDS Clinic at the University of Alabama at Birmingham. The laboratory-adapted HIV-1IIIB strain was propagated and tittered in fresh human PBMCs; pre-titered aliquots of HIV-1ROJO and Hiv-1IIIB were removed from the freezer (−80° C.) and thawed rapidly to room temperature in a biological safety cabinet immediately before use. Phytohemagglutinin (PHA-P) was obtained from Sigma (St. Louis, Mo.) and recombinant IL-2 was obtained from Amgen (San Francisco, Calif.).
Fresh human PBMCs were isolated from screened donors, seronegative for HIV and HBV. Leukophoresed blood was diluted 1:1 with Dulbecco's phosphate buffered saline (PBS), layered over 14 mL of Ficoll-Hypaque density gradient in a 50 mL centrifuge tube and then centrifuged for 30 minutes at 600×g. Banded PBMCs were aspirated from the resulting interface and subsequently washed 2× with PBS by low speed centrifugation. After the final wash, cells were enumerated by trypan blue exclusion and re-suspended at 1×10^7 cells/mL in RPMI 1640 supplemented with 15% Fetal Bovine Serum (FBS), 2 mM L-glutamine, 4 μg/mL PHA-P. The cells were allowed to incubate for 48-72 hours at 37° C. After incubation, PBMCs were centrifuged and reset in RPMI 1640 with 15% FBS, 2 mM L-glutamine, 100 U/ml penicillin, 100 μg/mL streptomycin, 10 μg/mL gentamycin, and 20 U/mL recombinant human IL-2. PBMCs were maintained in this medium at a concentration of 1-2×10^6 cells/mL with biweekly medium changes until used in the assay protocol.
For the standard PBMC assay, PHA-P stimulated cells from at least two normal donors were pooled, diluted in fresh medium to a final concentration of 1×10^6 cells/mL, and plated in the interior wells of 96 well round bottom microplate at 50 μL/well (5×10^4 cells/well). Test drug dilutions were prepared at a 2× concentration in microtiter tubes and […] of each concentration was placed in appropriate wells in a standard format. […] Wells with cells and virus alone were used for virus control. Separate plates were prepared identically without virus for drug cytotoxicity studies using an XTT assay system. The PBMC cultures were maintained for seven days following infection, at which time cell-free supernate samples were collected and assayed for reverse transcriptase activity as described below.
A microtiter based reverse transcriptase (RT) reaction was utilized. See Buckheit et al., AIDS Research and Human Retroviruses 7:295-302 (1991). Tritiated thymidine triphosphate (NEN) (TTP) was resuspended in distilled H2O at 5 Ci/ml. Poly rA and oligo dT were prepared as a stock solution which was kept at −20° C. The RT reaction buffer was prepared fresh on a daily basis and consists of 125 μl 1M EGTA, 125 μl dH2O, 110 μl 10% SDS, 50 μl 1M Tris (pH 7.4), 50 μl 1M DTT, and 40 μl 1M MgCL2. These three solutions were mixed together in a ratio of 2 parts TTP, 1 part poly rA:oligo dT, and 1 part reaction buffer. Ten microliters of this reactions mixture was placed at a round bottom microtiter plate and 15 μl of virus containing supernatant was added and mixed. […] Opti-Fluor-O (Packard) was added to each sample and incorporated radioactivity was quantified utilizing a Wallac 1450 MicroBeta Plus liquid scintillation counter.

Tsg101 [1] = target: T1, Tsg101 (Homo sapiens, UniProt Q99816); assay: Two-hybrid liquid culture β-galactosidase assay; assay type: cell-based; parameters: expressed in transfected cells; conditions: full length Tsg101, liquid culture; for β-galactosidase activity (in words): p6 point mutants
T1 sequence (Q99816 1-390): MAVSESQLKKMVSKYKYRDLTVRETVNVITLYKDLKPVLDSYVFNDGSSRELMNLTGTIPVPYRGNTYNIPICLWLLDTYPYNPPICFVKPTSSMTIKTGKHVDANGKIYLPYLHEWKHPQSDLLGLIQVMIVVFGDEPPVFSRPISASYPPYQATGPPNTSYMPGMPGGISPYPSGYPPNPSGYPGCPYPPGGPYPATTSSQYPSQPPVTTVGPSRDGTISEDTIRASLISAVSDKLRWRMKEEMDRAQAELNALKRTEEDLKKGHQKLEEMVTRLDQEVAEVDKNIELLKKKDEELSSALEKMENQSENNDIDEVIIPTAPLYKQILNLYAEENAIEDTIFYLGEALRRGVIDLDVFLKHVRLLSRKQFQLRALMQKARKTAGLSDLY
Description: The interactions between TSG101 and wild-type p6gag (WT) or the p6gag PTAP (SEQ ID NO:1) mutants were further quantitated by performing liquid culture β-galactosidase assays. Cultures were grown overnight in synthetic media (−Leu, −Trp, +glucose) in 96 well plates, normalized for optical density, and lysed by addition of 6× lysis/substrate solution in 6× Z-buffer (60 mM KCl, 6 mM MgSO4, 360 mM Na2HPO4, 240 mM NaH2PO4, 6 mg/ml CPRG, 0.12 U/ml lyticase, 0.075% NP-40). Cultures were incubated for 2 hr at 37° C., clarified by centrifugation, and the optical absorbance of each supernatant was measured (575 nm). Full length Tsg101 bound wild-type p6 in the two-hybrid liquid culture assay, resulting in high levels of β-galactosidase activity (>300-fold over background). […] Each of these point mutations also arrests HIV-1 budding at a late stage (Huang et al. 1995).

Tsg101 [2] = target: T1, Tsg101; assay: Yeast two-hybrid filter lift assay for β-Gal activity, Tsg101 with p6gag constructs; assay type: cell-based; parameters: expressed in transfected cells; host or cells: Saccharomyces cerevisiae strain Y189; key to Interactions Between Tsg101 and p6gag (β-Gal activity): +: Positive β-Gal activity indicates that the p6gag wild type or mutant protein interacts with Tsg101; conditions: for Interactions Between Tsg101 and p6gag (β-Gal activity): yeast strain Y189, activation domain-Tsg101 plus binding domain-p6gag construct, X-Gal filter lift
Description: Yeast two-hybrid assays were utilized to determine the effect of amino acid substitution mutations in the PTAP (SEQ ID NO:1) motif of HIV p6gag on the interaction between Tsg101 and p6gag. To prepare a yeast two-hybrid activation domain-Tsg101 construct, a DNA fragment encompassing the full-length coding sequence for Tsg101 according to GenBank Accession No. U82130 was obtained by PCR from a human fetal brain cDNA library and cloned into the EcoRI/Pst1 sites of the activation domain parent plasmid GADpN2 (LEU2, CEN4, ARS1, ADH1p-SV40NLS-GAL4 (768-881)-MCS (multiple cloning site)-PGKlt, AmpR, ColE1_ori).
To prepare the yeast two-hybrid DNA binding domain-HIV1 p6gag construct, a DNA fragment corresponding to the HIV1 p6 peptide derived from the HIV1.NL43 strain GAG protein was obtained by PCR from the NL43 containing plasmid R9Δapa and was cloned into the EcoRI/Sal1 sites of the binding domain parent plasmid pGBT.Q. The sequence of the amplified insert is shown in SEQ ID NO:34.
The following amino acid substitution mutations were introduced by PCR into the HIV1 p6gag sequence in the yeast two-hybrid binding domain-HIV1 p6gag construct described above. The mutations were verified by DNA sequence analysis.
To test the effect of the mutations, yeast cells of the strain Y189 purchased from Clontech (ura3-52 his3*200 ade2-101 trp1-901 leu2-3,112 met gal4 gal80 URA3::GAL1p-lacZ) were co-transformed with the activation domain-Tsg101 construct and one of the binding domain-mutant p6gag constructs or the binding domain-wild type p6gag construct. Filter lift assays for β-Gal activity were conducted by lifting the transformed yeast colonies with filters, lysing the yeast cells by freezing and thawing, and contacting the lysed cells with X-Gal. […] All binding domain constructs were also tested for self-activation of β-Gal activity.

| Molecule | Comments (anti-HIV activity) (HIV) | β-galactosidase activity (in words) (Tsg101 [1]) | other results |
| --- | --- | --- | --- |
| C[C@H](NC(=O)[C@@H](NC(=O)[C@@H]1CCCN1C(=O)[C@H](CCC(=O)O)NC(=O)[C@@H]1CCCN1C(=O)[C@@H](N)CCCNC(=N)N)[C@@H](C)O)C(=O)N1CCC[C@H]1C(N)=O [MPI-PEP3, NH2-RPEPTAP-CO—NH2] (H-RPEPTAP-NH2) | Inactive |  |  |
| C[C@H](NC(=O)[C@@H](NC(=O)[C@@H]1CCCN1C(=O)[C@H](CCC(=O)O)NC(=O)[C@@H]1CCCN1C(=O)[C@H](CCCNC(=N)N)NC(=O)[C@H](CCCNC(=N)N)NC(=O)[C@H](CCCNC(=N)N)NC(=O)[C@H](CCCNC(=N)N)NC(=O)[C@H](CCCNC(=N)N)NC(=O)[C@H](CCCNC(=N)N)NC(=O)[C@H](CCCNC(=N)N)NC(=O)[C@H](CCCNC(=N)N)NC(=O)[C@@H](N)CCCNC(=N)N)[C@@H](C)O)C(=O)N1CCC[C@H]1C(=O)N[C@@H](CCC(=O)O)C(=O)N[C@@H](CCC(=O)O)C(=O)O [MPI-PEP1, NH2—(R)9-PEPTAPEE-COOH] (H-RRRRRRRRRPEPTAPEE-OH) | Active |  |  |
| p6(P7L): HIV1 p6gag binding domain construct with P7L substitution in the PTAP motif (LQSRPELTAPPEESFRFGEETTTPSQKQEPIDKELYPLASLRSLFGSDPSSQ; not fully specified) |  | reduced β-galactosidase activity to background levels |  |
| p6(P10L): HIV1 p6gag binding domain construct with P10L substitution in the PTAP motif (LQSRPEPTALPEESFRFGEETTTPSQKQEPIDKELYPLASLRSLFGSDPSSQ; not fully specified) |  | reduced β-galactosidase activity to background levels |  |
| p6(A9R): HIV1 p6gag binding domain construct with A9R substitution in the PTAP motif (LQSRPEPTRPPEESFRFGEETTTPSQKQEPIDKELYPLASLRSLFGSDPSSQ; not fully specified) |  | reduced β-galactosidase activity to background levels |  |
| CC(C)C[C@H](NC(=O)[C@H](C)NC(=O)[C@@H](NC(=O)[C@@H]1CCCN1C(=O)[C@H](CCC(=O)O)NC(=O)[C@@H]1CCCN1C(=O)[C@H](CCCNC(=N)N)NC(=O)[C@H](CCCNC(=N)N)NC(=O)[C@H](CCCNC(=N)N)NC(=O)[C@H](CCCNC(=N)N)NC(=O)[C@H](CCCNC(=N)N)NC(=O)[C@H](CCCNC(=N)N)NC(=O)[C@H](CCCNC(=N)N)NC(=O)[C@H](CCCNC(=N)N)NC(=O)[C@@H](N)CCCNC(=N)N)[C@@H](C)O)C(=O)N[C@@H](CCC(=O)O)C(=O)N[C@@H](CCC(=O)O)C(=O)O [MPI-PEP2, NH2—(R)9-PEPTALEE-COOH] (H-RRRRRRRRRPEPTALEE-OH) | Inactive |  |  |
| p6(wt): wild type HIV1 p6gag (NL43 strain) as yeast two-hybrid DNA binding domain construct |  |  | Interactions Between Tsg101 and p6gag (β-Gal activity) (Tsg101 [2]): +; β-galactosidase activity (Tsg101 [1]; absorbance 575 nm): > 300 fold over background |
| p6(E6G): HIV1 p6gag binding domain construct with E6G substitution outside the PTAP motif (LQSRPGPTAPPEESFRFGEETTTPSQKQEPIDKELYPLASLRSLFGSDPSSQ; not fully specified) |  |  | Tsg101-p6gag interaction (in words) (Tsg101 [2]; summary of Table II): did not result in the elimination of the Tsg101-p6gag interaction; Interactions Between Tsg101 and p6gag (β-Gal activity) (Tsg101 [2]): + |
